Reference: the DeepSol protein solubility set

Test: soluble on expression in E. coli; label from the status in PepcDB or PDB records

| Sequence | soluble on expression in E. coli |
| --- | --- |
| MSLSFHEIRFPASLSFGSVGGPERRTDVVTLANGFEERNTPWAHSRRRYDAGMGMRSLDDIEALIAFFEARQGQIFGFRWKDWSDYKSARPTAEVDFRDQVIGLGDGVQTGFQLLKSYRSGDSIYPRPIAKPVDGTVRMGLGQEEIKEGIDFTLDPTTGMVVLSHPPENGIEVVAGFEFDVPVRFDTDRILTSVASFQAGDVPNVPVVEVRAEGHHHHHH | soluble |
| MSLTQAATRPTNDAGQDGGNNSDILVVARQQVLQRGEGLNQDQVLAVLQLPDDRLEELLALAHEVRMRWCGPEVEVEGIISLKTGGCPEDCHFCSQSGLFASPVRSAWLDIPSLVEAAKQTAKSGATEFCIVAAVRGPDERLMAQVAAGIEAIRNEVEINIACSLGMLTAEQVDQLAARGVHRYNHNLETARSFFANVVTTHTWEERWQTLSMVRDAGMEVCCGGILGMGETLQQRAEFAAELAELGPDEVPLNFLNPRPGTPFADLEVMPVGDALKAVAAFRLALPRTMLRFAGGREITLGDLGAKRGILGGINAVIVGNYLTTLGRPAEADLELLDELQMPLKALNASLEGHHHHHH | soluble |
| MEICADELKKVLNTVVNKHKDLKTHGFTLESCRSMIALMDTDGSGKLNLQEFHHLWNKIKAWQKIFKHYDTDQSGTINSYEMRNAVNDAGFHLNNQLYDIITMRYADKHMNIDFDSFICCFVRLEGMFRAFHAFDKDGDGIIKLNVLEWLQLTMYA | soluble |
| MNYIESLISSVDSQIDTLNKAMIEVQSTIDLLSNGDLASSPEKLISIGSGLFAKGNITIDEDLIVPIGSGIYVAETKERSVERLKKNLEDIKASIQKLLDQRKTLVDQYNTVYATEATRNVK | not soluble |
| MPSETLWEIAKAEVEKRGINGSEGDGAEIAEKFVFFIGSKNGGKTTIILRCLDRDEPPKPTLALEYTYGRRAKGHNTPKDIAHFWELGGGTSLLDLISIPITGDTLRTFSLVLVLDLSKPNDLWPTMENLLQATKSHVDKVIMKLGKTNAKAVSEMRQKIWNNMPKDHPQDHELIDPFPVPLVIIGSKYDVFQDFESEKRKVICKTLRFVAHYYGASLMFTSKSEALLLKIRGVINQLAFGIDKSKSICVDQNKPLFITAGLDSFGQIGSPPVPENDIGKLHAHSPMELWKKVYEKLFPPKSINTLKDIKDPARDPQYAENEVDEMRIQKDLELEQYKRSSSKSWKQIELDS | not soluble |
| MLKIIQGALDTRELLKAYQEEACAKNFGAFCVFVGIVRKEDNIQGLSFDIYEALLKTWFEKWHHKAKDLGVVLKMAHSLGDVLIGQSSFLCVSMGKNRKNALELYENFIEDFKHNAPIWKYDLIHNKRIYAKERSHPLKGSGLLALEHHHHHH | soluble |
| MGSDKIHHHHHHMNDPLDPLPSLNALRAFEAASRHLNFRLAAGELGVTQGAVAQHVRGLESSIGLVLFERRPRALVLTENGRSYAASVRRAFDLLVEATQALRPQPLQLTISVTPTFAAKWLIPRLQDFTAAHPEIDLRIIATDRLSHFQTDAIDLAVRYGQPPFGVGLNAECLFESVLVAVGSPRLANELRSSGAARFFARYPLLHDAHNQWPPFLQEVLKQSAAIGEKNIRFNQTSLAIDAAMAGQGIALAPFAFVGRAIAMGGLSRIFDVELRTGSGFYVVTPRRLRHPGPVAAVRGWLLKQGREQMCD | not soluble |
| MMVRVMRYKKVPVKKIVNKIIDECDVILLVLDARDPEMTRNRELEKKIKAKGKKLIYVLNKADLVPKDILEKWKEVFGENTVFVSAKRRLGTKILREMIKQSLKEMGKKEGKVGIVGYPNVGKSSIINALTGKRKALTGSVAGLTKGEQWVRLTKNIKLMDTPGVLEMRDEDDLVISGALRLEKVENPIPPALKILSRINNFDNSIIKEYFGVDYEEVDEELLKKIGNKRSYLTKGGEVDLVRTAKTIIKEYQDGKLNYYKVDLKKYGQDRERDISFITKYLKDFPFIEDAKMIVTHLKDFDGLYKKIKKPVLGSEEIDGNIVVVSFGEKTKDACRKKVENLCRERNIEVLSKFGDKIGANNIYVAVGKRVKE | soluble |
| GPGSMPNEKAQTLTVAEAFAETSKALQQFNIERIRVDGLSRGNACDEEKFRMLTEQEFMREFVFHSRPCIIVGALCDWPALQRWRDDRYLFDLDEKLPMVYEKERTSKGNGEINENDSFHEDEEIVTESDAEDSKNGTSNNEAESQGTLGPRRVTVALTPNGRADAVTYVTYNAVKNESQVHDKLEGKSDFVVTEKLFMSAAELRVTLPELYRLLRANPLVPPLKSQFVDLRRPQRSIAYAQMQNNCLAEEYQHLHADIDTALDRFGTRVFGGKREAANIWLGTPASVSSMHQDWVENLYAVVRGVKEFILVPPWEGVFVPKPELPAAAFTLKAAANCKEGEEEYIFSDSPTRDGTSVPWMDVELTPAAVDDPLHIKEELRDKLHPLIAYVQPGEVLYLPALWLHRVAQHADSEDSRVIEEASTEEIAKVSRHDQKHSAPLPLIAAVNYWYDMSFTNPAVVMLREFGLLL | not soluble |
| MSLIVKVSPKGSMDQLSQLEVDRLKKSAQSALYQLYRNCSLAVLAAGLKTDNSKALFEQYSDFDIHVLQRERGVKLELINPPEQAFVDGQIITGIQEHLFSVLRDILYISDKYDTLKHINLTNASHITNVVFDILRNARAIAPMKDPNVVVCWGGHSINAIEYQYTREVGYQLGLRELDICTGCGPGAMEGPMKGAAIGHSKQRIKNARYIGLTEPSIIAAEPPNQIVNELVILPDIEKRLEAFVRLGHGIIIFPGGAGTAEELLYILGILLNKENQETPFPLVLTGPSESADYFIKIDEFIAATLGPEAQQKYQIIIDNPAEVARVMKQGMEQVKNHRRTTGDAYQYQWGLKIEPEFQLPFIPTHDVMANLNLHFQSNKAELAANLRKAFSGIVAGNVKSETIKQIEQLGPFHIKGDPHLMELMDNLLGAFVAQHRMKLPGSAYVPCYQIVKEGHHHHHH | soluble |
| MERRKDTEVALAQRDTILQTILDASPDSIGIFNENMVYQACNKPFVNALGISEVSDLIGKRLQDVIPVEMYTRLETSDLHALRQAEPVRYIDKVVSSDGHITWFDVVKSPFKDKASGTNGVLIMARDIS | not soluble |
| MDLFRKPKKRNAPVVRKKESSSDEDQDSEVKDVIQKRRRTNPMVQSTKQLDASTRRADNSSDDSDDSDDNQDIAVATHSFAASGDAGPSGPRDQGATATLEVDTDYSHDAQAQFERVQQQLKEGVEKDGKILYKGSALYGAKEAKDTAKGNAASGYNRVGPVRAPQFLRQTVRWDFAPDICKDYKETGFCTFGDSCKFVHDRSDYKHGWEIDEEYEAGKYGAEDDANYEIHEGDDTFPEDCFICGNPFVDPIVTKCKHYFCTGCALKSFQKSSKCPICQQNTENIMNTAKELLTYLKRKKQQQKQEAEKQEEEKDSDDDEKPHECDDHHHHDHEDEPEEPENDSNVPEAEEKSDEEQEIMMEDVEGLEGGENDSESDDDDAEKD | soluble |
| SLRSFEAPNGVAFASIGDTGAANSNQAKCGISLAALSVALDIKFVNLLGDNLYPHGVTSAVDPLWQSAFEVPFGAPSLQKVAFFPVLGNHDYHLDPYAQIDRCIRLGNEHLNFTEKEKTDGSRPQLSKTYQMQAMLPWMKIHHEKFRYSFDQTTKMHGLDGPRWRLPNFWYFTRHVFRNVPRHVKNPFVTGASISDISLVSTEEDKTDVTVVTIYIDSMVLLLEEGSKSSSIRYRFPRDELYYRHLEFLEDTLKAATREADWIFIAGHHPVVNYSVRNAKPSDFAVRLTELMRKYKVDTFLSGHEHALSFFQEPDANTTHIISGTGSKLSARDPIPSKDCLFSVREHGVAVHVLGKEELHHGFVSADGKVLFTASQRRQDRT | soluble |
| MGSDKIHHHHHHMLGTLKKLRAHLDEAQQVQYQLVVGEELLPLNPLIGQPLTLTHTGNIFCCNCGKKTKKSYSQGHCFVCMQKLASCDMCIMKPETCHFDQGTCREPEWAQSHCFVPHYVYLSNTSGIKVGITRHTQLPSRWIDQGATQGLPIFKVATRQISGLVEVELAKLINDKTHWQAMLKGHADDIDLQAKAAELIPHIEAKLHEIGMQKGNYSIERLQENIQTIHYPIEVFPKKITSHNFDKEAVVSGILQGIKGQYLLFDTGVINIRKFTAYEVSVTLTG | not soluble |
| MSLTIPGVVIIGGAHGTLALARSLGVLNVPVYYLTHDSPLPGWSRFVRETIRWAGPHDDGAMAFLREMAEKPGLKGCLLVPSGDGEVQLVSQHREELSALYKIILPEWTNLQWLCEKPLLYKRAAELGVSIPRTYALTSAADIDGLDVMFPVILKPHMGGGNTSIARAKVIRADDREELKAAFVDASGEIGPDNVVVQELIPGGGESQFSYAALWLNGEPIAEFTARRARQYPVDFGYTSTRVEVVDNRQAIEAARKILKSAGHSGLVEVEFKLDGRDGALKLLDVNPRPWSWFGLCSAAGINLGGLLWRVANEGHHHHHH | soluble |
| GPGSMCNRFSCSSCRYVVPIQSRRPLTINHSFLKYNKVVDDDDEKGSSNTVKRGVKEEEEVDGGQVITVRCQNDEKQCDGDRAHYVQIQMRSADEPATTFFKCLKCGFQWKQD | soluble |
| MLDDLPGVADNAKKILFDMKCTTVIDDCNVHLRDVLNLLEDEMHSFRLSSIEANDLDKLYDTFYYYGKKEQLIEFLLDQMTNAINFKQADKDFLIYSWLVEKLTEEQICEMLARINENTQYHWNNNLNSFVDEFVAYYKETNGIDLRINYLGAIYTNLKILSDEYTLSISDYELIFKFFEDIIESHSETIFDFQRKYKKDIETNFGNSLENFPKLNKLLFE | not soluble |
| GSHMASGDATDITIYYKTGWTHPHIHYSLNQGAWTTLPGVPLTKSEYEGYVKVTIEAEEGSQLRAAFNNGSGQWDNNQGRDYDFSSGVHTLADGRILSGTPK | soluble |
| MAHHHHHHMSLAPNTGSVELKAYSAHASLLLARGERIDKRAFDECRLPAIVREERVGGATVAGAGDGSPQSSASSNMTSTYTVLDGKSLAAVMYTDAYGTCIQCTVQGLLGPPRPEQPAAGRLNVHVEAPFVEHLSGGATSTNYRSFQYMIASGNADLPLRQLEGYIGTVLDGCFDLSQLSIYAGEACWVLKVSVLLLSVDGGLRAGSLHAALAALHKLHLPRIRLPNGDVIEGRQVQLSCMPVACTFGFLAGAQVRLVADTTAIEEHVADGLITVVVDEAERILSVHHTGRCPLLAQALTAAAQQWAAASGSMRKALYG | not soluble |
| MLSKSLALGRRLTKISSSVKSISSITFKTVDGKPRDALTIHNVDFVIDPDEKMVDEYMKVYGNQRFNFKRNDIDIWRKSFKDSYSLWLVCLKGTNKIVQMSHVLNFPPLLSHNDILHQYHGFFWVDPDYRGKDSMAIMDYIEKHRARNQSDNDAGTFLTTAVTMWTKMHGHADYKHIMYVSYYKPDEMQIPEDLNLDGIFLKNATEVPDMDIVKYDNTVFPYERSKYMLNLLRDPEGFGKVAYDNNGKVIGFGNVIIYPSGECVLTPLYADDSKVAQAIFKSILKEIPLNDKKLLRFQIRSIDQCEGGFEWIQPFVKNPIRKEIMGHMAGSSHPPTVNYKKTYANTPYTTCVI | not soluble |
| MKILITGGAGFIGSAVVRHIIKNTQDTVVNIDKLTYAGNLESLSDISESNRYNFEHADICDSAEITRIFEQYQPDAVMHLAAESHVDRSITGPAAFIETNIVGTYALLEVARKYWSALGEDKKNNFRFHHISTDEVYGDLPHPDEVENSVTLPLFTETTAYAPSSPYSASKASSDHLVRAWRRTYGLPTIVTNCSNNYGPYHFPEKLIPLVILNALEGKPLPIYGKGDQIRDWLYVEDHARALHMVVTEGKAGETYNIGGHNEKKNLDVVFTICDLLDEIVPKATSYREQITYVADRPGHDRRYAIDAGKISRELGWKPLETFESGIRKTVEWYLANTQWVNNVKSGAYQSWIEQNYEGRQ | soluble |
